Laboratory results reported in article PMC10876215, “Nucleosome conformation dictates the histone code” (eLife, 2024).
Read-outs that look alike come from different tables or passages of the source.

Legend:
BPTF BD (6His-tagged) [1] = molecular target: T1, BPTF BD (6His-tagged) (Homo sapiens, UniProt Q12830); experiment: dCypher binding assay, NCPs, 6His-BD Query
T1 construct: Q12830 (2914-3037); host or cells: E. coli BL21 (DE3)
Excerpt: Human BPTF (Uniprot Q12830) PHD finger-bromodomain (PHD-BD) and PHD finger were cloned into pGEX6p with an N-terminal Glutathione S-Transferase (GST) tag and a PreScission protease cleavage site (Supplementary file 2A and Figure 1—figure supplement 2). BPTF BD with an N-terminal 6xHistidine (6His) tag and Tobacco Etch Virus (TEV) protease cleavage site was from Addgene (plasmid 39111). The Q5 site-directed mutagenesis kit (New England Biolabs [NEB]) was used for domain addition/removal or single amino acid substitutions. All constructs were expressed in E. coli BL21 (DE3) (Thermo Fisher Scientific or NEB). […] Protein concentrations were determined by UV-Vis spectroscopy.
The dCypher approach (dCypher for brevity) was developed on the chemiluminescent bead-based, no-wash Alpha platform (PerkinElmer) for the high-throughput profiling of CAP binding to PTM-defined histone peptides and semi-synthetic nucleosomes (homotypic NCPs unless stated otherwise) ([Marunde et al., 2022a]; [Morgan et al., 2021]; [Weinberg et al., 2019]; [Dilworth et al., 2022]; [Weinberg et al., 2021]; [Jain et al., 2020]; [Lloyd et al., 2020]). […] The plate was incubated at room temperature in subdued lighting for 60 min and the Alpha signal was measured on a PerkinElmer 2104 EnVision (680 nm laser excitation, 570 nm emission filter ± 50 nm bandwidth). […]

BPTF PHD-BD (GST-tagged) [2] = molecular target: T2, BPTF PHD-BD (GST-tagged) (Homo sapiens, UniProt Q12830); experiment: dCypher binding assay, histone peptides, GST-PHD-BD Query
T2 construct: Q12830 (2865-3036); made in house; host or cells: E. coli BL21 (DE3)
Excerpt: (§1) Human BPTF (Uniprot Q12830) PHD finger-bromodomain (PHD-BD) and PHD finger were cloned into pGEX6p with an N-terminal Glutathione S-Transferase (GST) tag and a PreScission protease cleavage site (Supplementary file 2A and Figure 1—figure supplement 2). BPTF BD with an N-terminal 6xHistidine (6His) tag and Tobacco Etch Virus (TEV) protease cleavage site was from Addgene (plasmid 39111). The Q5 site-directed mutagenesis kit (New England Biolabs [NEB]) was used for domain addition/removal or single amino acid substitutions. All constructs were expressed in E. coli BL21 (DE3) (Thermo Fisher Scientific or NEB). Cells were grown to OD600 ~1.0 and induced with 0.8 mM IPTG at 18 °C for ~16 hr in LB (or M9 minimal media for NMR). M9 media was supplemented with vitamin (Centrum Adult), 1 g/L ^15NH4Cl, and 5 g/L D-glucose. For constructs containing the BPTF PHD finger all growth media and buffers were supplemented with 100 μM ZnCl2. For purification of BPTF recombinants cells were lysed by sonication, and lysates were incubated with either glutathione agarose (Thermo Fisher Scientific) or Ni-NTA resin (Thermo Fisher Scientific) to respectively enrich for GST- and 6His-tagged proteins. Fusion proteins were eluted with reduced L-glutathione or imidazole as appropriate. […] Protein concentrations were determined by UV-Vis spectroscopy. […]

[3] = test system: GST-PHD^W2891A-BD (GST-PHD^mut-BD); assay type: binding, Human; conditions: for binding: NCPs
Excerpt: Human BPTF (Uniprot Q12830) PHD finger-bromodomain (PHD-BD) and PHD finger were cloned into pGEX6p with an N-terminal Glutathione S-Transferase (GST) tag and a PreScission protease cleavage site (Supplementary file 2A and Figure 1—figure supplement 2). BPTF BD with an N-terminal 6xHistidine (6His) tag and Tobacco Etch Virus (TEV) protease cleavage site was from Addgene (plasmid 39111). The Q5 site-directed mutagenesis kit (New England Biolabs [NEB]) was used for domain addition/removal or single amino acid substitutions. All constructs were expressed in E. coli BL21 (DE3) (Thermo Fisher Scientific or NEB). Cells were grown to OD600 ~1.0 and induced with 0.8 mM IPTG at 18 °C for ~16 hr in LB (or M9 minimal media for NMR). M9 media was supplemented with vitamin (Centrum Adult), 1 g/L ^15NH4Cl, and 5 g/L D-glucose. For constructs containing the BPTF PHD finger all growth media and buffers were supplemented with 100 μM ZnCl2. For purification of BPTF recombinants cells were lysed by sonication, and lysates were incubated with either glutathione agarose (Thermo Fisher Scientific) or Ni-NTA resin (Thermo Fisher Scientific) to respectively enrich for GST- and 6His-tagged proteins. Fusion proteins were eluted with reduced L-glutathione or imidazole as appropriate. For NMR, samples were cleaved from the GST tag using PreScission protease. All BPTF proteins were then further purified using anion exchange (Source 15Q, GE Healthcare Life Sciences) and size exclusion chromatography (SEC; Superdex 75, GE Healthcare Life Sciences). Protein concentrations were determined by UV-Vis spectroscopy.
The dCypher approach (dCypher for brevity) was developed on the chemiluminescent bead-based, no-wash Alpha platform (PerkinElmer) for the high-throughput profiling of CAP binding to PTM-defined histone peptides and semi-synthetic nucleosomes (homotypic NCPs unless stated otherwise) ([Marunde et al., 2022a]; [Morgan et al., 2021]; [Weinberg et al., 2019]; [Dilworth et al., 2022]; [Weinberg et al., 2021]; [Jain et al., 2020]; [Lloyd et al., 2020]). […]

BPTF BD (6His-tagged) [4] = molecular target: T1, BPTF BD (6His-tagged); experiment: dCypher binding assay, histone peptides, 6His-BD Query; conditions: Table (Ext. Figure 2A), 4PL fit, top constrained (496106)
Excerpt: as §1

BPTF PHD (6His-tagged) = molecular target: T3, BPTF PHD (6His-tagged) (Homo sapiens, UniProt Q12830); experiment: dCypher binding assay, histone peptides, 6His-PHD Query; conditions: Table (Ext. Figure 2A), 4PL fit, H3 1-20 top constrained (426889)
T3 construct: Q12830 (2865-2924); made in house; host or cells: E. coli BL21 (DE3)
Excerpt: as §1

BPTF PHD-BD (GST-tagged) [5] = molecular target: T2, BPTF PHD-BD (GST-tagged); experiment: dCypher binding assay, NCPs, GST-PHD-BD Query
Excerpt: as §1

[6] = test system: 21 bp double-stranded DNA; experiment: NMR titration (1H-15N HSQC) of 15N-H4 tail peptide with dsDNA; assay type: binding; conditions: 30 μM peptide; DNA ratios up to 1:3; 20 mM MOPS pH 7.2, 150 mM KCl, 25 °C
Procedure: The histone H4 tail (residues 1–25 followed by a C-terminal tyrosine for quantification) was expressed from pGEX6p as a fusion with an N-terminal GST tag followed by a PreScission protease cleavage site (Supplementary file 2A). This was overexpressed in E. coli BL21 (DE3) (NEB) grown in M9 minimal media supplemented with vitamin (Centrum daily multivitamin), 1 g/L ^15NH4Cl, and 5 g/L D-glucose. Cells were grown to OD600 ~1.0 and induced with 0.5 mM IPTG at 37 °C for 4 hr. The ^15N-GST-H4 peptide fusion was purified on glutathione agarose resin (Thermofisher Scientific), cleaved with PreScission protease (16 hr at 4 °C), and products resolved by SEC (Superdex 75 10/300; GE Healthcare Life Sciences). […] Acquisition and deconvolution software used during data collection and analysis were MassLynx and MaxEnt, respectively. ^15N-H4 (1-25) peptide concentration was determined by UV-vis spectroscopy using the non-native C-terminal tyrosine.
Oligonucleotides (5’-[…]-3’ and the complement 5’-[…]-3’) for DNA titration NMR were from Integrated DNA Technologies (IDT). […] Duplex DNA was purified on a source 15Q column (GE Healthcare Life Sciences) and analyzed by 1% agarose gel. DNA was precipitated in ethanol, resuspended in ddH2O, and concentration was determined by UV-vis and the predicted extinction coefficient (ε260=333,804.5 M^–1 cm^–1). […]

Substance	binding (BPTF BD (6His-tagged) [1]; Ext. Figure 2G, 6His BD)	binding (BPTF BD (6His-tagged) [1]; Table (Ext. Figure 2B), 6His-BD)	preference over peptides containing each PTM class alone (in words) (BPTF PHD-BD (GST-tagged) [2])	binding ([3]; Figure 2B lower, PHDmut-BD W2891A)	binding to NCPs (in words) ([3]; GST-PHD^mut-BD)	binding ([3]; Table (Figure 2C), PHDmut-BD)	Log EC50rel (BPTF BD (6His-tagged) [4]) [M]	Log EC50rel (BPTF PHD (6His-tagged)) [M]	preference over H3K4me3 or H3tetra^ac (BPTF PHD-BD (GST-tagged) [5]) [fold]	DNA binding by CSPs (in words) [6]
H3K4me3tri^ac: histone H3 peptide H3K4me3K9acK14acK18ac (NMR version aa 1–34)	no binding	no binding	no preference	no binding	lost binding	no binding	-5.811	-7.000	> 20	–
^15N-H4 (1-25) peptide: histone H4 tail residues 1–25 followed by a C-terminal tyrosine, recombinant	–	–	–	–	–	–	–	–	–	the H4 tail bound DNA
